Test results as given in the supplement of paper PMC10567573.

Assay: protein stability index of a GFP-peptide fusion (GPS, HEK-293T) (PSI 1-6); higher = more stable
Settings: c terminus: native
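Also: lentivirally expressed fusion library, cells FACS-sorted into six equal-sized GFP/DsRed ratio bins, PSI computed from sequencing read fractions per bin weighted by bin number.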

## CQPISFSGFGAEDDDLGGLGLGPP [POLD2 addP]
parent: NP_006221.1
  protein stability index: 4.45

## LPALFTDLYSQEITAEEAREALPP [SNF8 addP]
parent: NP_009172.2
  protein stability index: 2.03

## DGWIRVSSDNVADLHEKYSGSTPP [PSMB5 addP]
parent: NP_002788.1
  protein stability index: 4.78
